Consider one substance from paper PMC3235549.

Bounds are passed on as bounds.

In this assay the target is Recombinant RNMT (human) (UniProt O43148).
Chain of UniProt O43148 (O43148 whole entry): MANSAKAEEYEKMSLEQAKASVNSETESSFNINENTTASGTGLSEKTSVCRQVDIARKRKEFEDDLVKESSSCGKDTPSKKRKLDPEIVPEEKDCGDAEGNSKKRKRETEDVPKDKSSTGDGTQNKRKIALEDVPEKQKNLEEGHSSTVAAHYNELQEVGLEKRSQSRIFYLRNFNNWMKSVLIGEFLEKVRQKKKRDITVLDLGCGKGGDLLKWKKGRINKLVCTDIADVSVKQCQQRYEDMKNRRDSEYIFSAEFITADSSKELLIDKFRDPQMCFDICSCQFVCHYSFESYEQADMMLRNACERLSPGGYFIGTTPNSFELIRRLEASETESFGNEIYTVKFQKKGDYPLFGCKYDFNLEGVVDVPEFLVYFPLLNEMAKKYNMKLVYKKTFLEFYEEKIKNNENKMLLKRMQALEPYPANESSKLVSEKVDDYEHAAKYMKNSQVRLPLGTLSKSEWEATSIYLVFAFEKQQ

Take “Recombinant RAM (from UniProt Q9BTL3 1-118) (natural protein)”: the in vitro cap methyltransferase assay, 20 nM RNMT with 20 nM RAM (Figure 3D) is more than 4 fold.
